Experimental data: publication doi:10.1101/2021.02.03.429507

Assays:
[1] = molecular target: Core-binding region peptide of E-cad, AlexaFluor 488 at the N-terminus (mouse); test: two-focus FCS
[2] = molecular target: Core-binding region peptide of E-cad, AlexaFluor 488 at the C-terminus (mouse); test: two-focus FCS
[3] = molecular target: E-cad construct B (cytoplasmic tail of mouse E-cadherin, FRET labels on the central segment) (mouse) (UniProt P09803); test: single-molecule FRET
[4] = molecular target: E-cad construct A (cytoplasmic tail of mouse E-cadherin, FRET labels on the N-terminal segment) (mouse) (UniProt P09803); test: single-molecule FRET
[5] = molecular target: E-cad construct C (cytoplasmic tail of mouse E-cadherin, FRET labels on the C-terminal segment) (mouse) (UniProt P09803); test: single-molecule FRET

A Kd [1] of over 1000 nM, a Kd [2] of over 1000 nM and a Kd [3] of 4 nM were found for “Full-length murine beta-catenin (from UniProt Q02248 1-781) (natural protein)” in this work. For the same substance, the Kd [4] was 4 nM and the Kd [5] was 4 nM.
